T1: intact chondroadherin (CHAD) polypeptide, human
T1 sequence: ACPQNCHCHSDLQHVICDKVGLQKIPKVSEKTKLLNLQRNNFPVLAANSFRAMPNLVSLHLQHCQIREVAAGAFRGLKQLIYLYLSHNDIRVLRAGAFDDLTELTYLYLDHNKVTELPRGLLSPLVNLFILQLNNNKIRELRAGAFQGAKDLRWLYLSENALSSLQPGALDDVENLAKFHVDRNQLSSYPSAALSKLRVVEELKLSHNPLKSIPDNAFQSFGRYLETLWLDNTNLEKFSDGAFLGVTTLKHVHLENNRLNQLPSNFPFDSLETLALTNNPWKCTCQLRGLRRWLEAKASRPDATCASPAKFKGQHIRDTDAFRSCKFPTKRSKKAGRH

B1: Recombinant cathepsin K (enzyme, UniProt P43235 115-329, looked up, species assumed)
Cathepsin K: APDSVDYRKKGYVTPVKNQGQCGSCWAFSSVGALEGQLKKKTGKLLNLSPQNLVDCVSENDGCGGGYMTNAFQYVQKNRGIDSEDAYPYVGQEESCMYNPTGKAAKCRGYREIPEGNEKALKRAVARVGPVSVAIDASLTSFQFYSKGVYYDESCNSDNLNHAVLAVGYGIQKGNKHWIIKNSWGENWGNKGYILMARNKNNACGIANLASFPKM
B2: MMP-7 (enzyme, UniProt P09237 95-267, looked up, species assumed)
Matrilysin: YSLFPNSPKWTSKVVTYRIVSYTRDLPHITVDRLVSKALNMWGKEIPLHFRKVVWGTADIMIGFARGAHGDSYPFDGPGNTLAHAFAPGTGLGGDAHFDEDERWTDGSSLGINFLYAATHELGHSLGMGHSSDPNAVMYPTYGNGDPQNFKLSQDDIKGIQKLYGKRSNSRKK
B3: ADAMTS4 (enzyme, UniProt O75173 213-837, looked up, species assumed)
A disintegrin and metalloproteinase with thrombospondin motifs 4: FASLSRFVETLVVADDKMAAFHGAGLKRYLLTVMAAAAKAFKHPSIRNPVSLVVTRLVILGSGEEGPQVGPSAAQTLRSFCAWQRGLNTPEDSDPDHFDTAILFTRQDLCGVSTCDTLGMADVGTVCDPARSCAIVEDDGLQSAFTAAHELGHVFNMLHDNSKPCISLNGPLSTSRHVMAPVMAHVDPEEPWSPCSARFITDFLDNGYGHCLLDKPEAPLHLPVTFPGKDYDADRQCQLTFGPDSRHCPQLPPPCAALWCSGHLNGHAMCQTKHSPWADGTPCGPAQACMGGRCLHMDQLQDFNIPQAGGWGPWGPWGDCSRTCGGGVQFSSRDCTRPVPRNGGKYCEGRRTRFRSCNTEDCPTGSALTFREEQCAAYNHRTDLFKSFPGPMDWVPRYTGVAPQDQCKLTCQAQALGYYYVLEPRVVDGTPCSPDSSSVCVQGRCIHAGCDRIIGSKKKFDKCMVCGGDGSGCSKQSGSFRKFRYGYNNVVTIPAGATHILVRQQGNPGHRSIYLALKLPDGSYALNGEYTLMPSPTDVVLPGAVSLRYSGATAASETLSGHGPLAQPLTLQVLVAGNPQDTRLRYSFFVPRPTPSTPRPTPQDWLHRRAQILEILRRRPWAGRK

Test system: T1, intact chondroadherin (CHAD) polypeptide, human

| Molecule | CHAD fragmentation after protease digestion of normal disc tissue (SDS-PAGE, immunoblot) |
| --- | --- |
| ADAMTS5 | digestions performed with ADAMTS4 and ADAMTS5 also did not generate CHAD fragments |
| MMP-3 | Digestion with MMPs 3, 7, 12 and 13, showed no evidence of CHAD fragments retained in the tissue |
| MMP-12 | Digestion with MMPs 3, 7, 12 and 13, showed no evidence of CHAD fragments retained in the tissue |
| MMP-13 | Digestion with MMPs 3, 7, 12 and 13, showed no evidence of CHAD fragments retained in the tissue |
| Recombinant cathepsin B | Digestions performed with cathepsins B and L showed extensive degradation of CHAD |
| Recombinant cathepsin L | Digestions performed with cathepsins B and L showed extensive degradation of CHAD |
| B1 | cathepsin K generated a CHAD fragment large enough to be retained in the gel and similar in size to that generated in situ |
| B2 | Digestion with MMPs 3, 7, 12 and 13, showed no evidence of CHAD fragments retained in the tissue |
| B3 | digestions performed with ADAMTS4 and ADAMTS5 also did not generate CHAD fragments |
